B1: GI210B1CN: fusion protein dimer comprising GLP-1 and an Fc domain of IgG4; SEQ ID NO: 22 (protein)
chain: HGEGTFTSDVSSYLEEQAAKEFIAWLVKGGGGGGGSGGGGSGGGGSGGAESKYGPPCPPCPAPEAAGGPSVFLFPPKPKDQLMISRTPEVTCVVVDVSQEDPEVQFNWYVDGVEVHNAKTKPREEQFNSTYRVVSVLTVLHQDWLNGKEYKCKVSNKGLPSSIEKTISKAKGQPREPQVYTLPPSQEEMTKNQVSLTCLVKGFYPSDIAVEWESNGQPENNYKTTPPVLDSDGSFFLYSRLTVDKSRWQEGNVFSCSVLHEALHNHYTQKSLSLSLG
modifications: dimer; GLP-1-IgG4 Fc

Columns and labels:
[1] = in vivo; cited from earlier work
[2] = test system: Tg-APP/PS1 mice; assay: MAP-2 immunofluorescence staining of hippocampal CA1 region; type: in vivo, mouse; conditions: Example 2; GI210B1, GI210B1C1, GI210B1CN at 1.2, 0.7778, 1.1745 mg/kg intraperitoneal, 4 times for 2 weeks
Text: Long-term memory is regulated at synapses between axons of neurons and dendrites of target neurons, and the microstructure of neurons is greatly influenced by the state of neuron health. Changes in the microstructure of dendrites of neurons are important for maintaining memory. The microstructure of the dendrites of such neurons can be observed as an image by staining with an anti-MAP-2 antibody (GeneTex, CatNo. GTX133109) located in the dendrites.
Therefore, in order to determine the mechanism of action of cognitive function improvement and memory recovery effects of GI210B1, the Tg-APP/PS1 mice administered with GI210B1 (Tg+GI210B1), the wild type mice (WT) as a normal group, and the Tg-APP/PS1 mice (Tg or Tg+Veh) as a control group were sacrificed, and then the brain tissue was extracted, and the microstructural status of the dendrites (dendritic process) of the hippocampus was analyzed.
In the same manner as in Example 1.4.1 above, the mice from each group were sacrificed, and then the brain tissue was extracted, and the microstructural status of the dendrites of the hippocampus was analyzed.

[3] = test system: Tg-APP/PS1 mice; assay: Aβ plaque deposition in brain tissue, thioflavin S staining; type: in vivo, mouse; conditions: Example 2; GI210B1, GI210B1C1, GI210B1CN at 1.2, 0.7778, 1.1745 mg/kg intraperitoneal, 4 times for 2 weeks
Experimental: Accordingly, in order to confirm the effect of treating Alzheimer's disease by intraperitoneal administration of GI210B1, the Tg-APP/PS1 mice administered with GI210B1 (Tg+GI210B1) and the Tg-APP/PS1 mice (Tg+Veh), a control group, were sacrificed, and then the brain tissue was extracted, and Aβ plaques were stained using thioflavin S, and then the degree of Aβ plaque deposition in the parietal cortex, hippocampus, and piriform cortex regions was analyzed.
Specifically, for immunohistochemical analysis using thioflavin S staining, the brain was collected after perfusion for the mouse with 4% paraformaldehyde, and then the brain was further fixed with 4% paraformaldehyde overnight at 4° C. The brain tissue sections were prepared by cutting the fixed brain tissue to a thickness of […] using a vibratome. The prepared brain tissue sections were stained using thioflavin S by a known method. At that time, the stained image was analyzed using MetaMorph Microscopy Automation & Image Analysis software (Molecular device). The amount of plaque was quantified and expressed as the number of plaques per unit area and the sum of the plaque areas.
The Tg-APP/PS1 mice were prepared in the same manner as in Example 1.1 above. The test substance was prepared by diluting GI210B1, GI210B1C1, or GI210B1CN obtained in Preparation Example 1 to 3 in saline. Thereafter, the prepared test substances were each intraperitoneally administered to the 6.5-month-old Tg-APP/PS1 mice at a concentration of 1.2 mg/kg, 0.7778 mg/kg, and 1.1745 mg/kg a total of 4 times for 2 weeks (FIG. 23).
In the same manner as in Example 1.3 above, the mice were sacrificed, and then the brain tissue was extracted, and the degree of Aβ plaque deposition in the parietal cortex, hippocampus, and piriform cortex regions was analyzed using thioflavin S, which stains Aβ plaques.
The Tg-APP/PS1 mice were prepared in the same manner as in Example 1.1 above. The test substance was prepared by diluting GLP-1 (Peptron), GI210B1C1 obtained in Preparation Example 2 and GI212B2 obtained in Preparation Example 4, anakinra (Amgen, Kineret-inj), and the anti-IL-1 antibody (BioXcell, BE0246) in saline to concentrations of 0.0371 mg/kg, 1.1745 mg/kg, 1.8722 mg/kg, 0.2041 mg/kg, and 1.77 mg/kg, respectively. Thereafter, the prepared test substances were intraperitoneally administered to the 6.5-month-old Tg-APP/PS1 mice a total of 4 times for 2 weeks, as shown in Table 6 below (FIG. 30). […]
In the same manner as in Example 1.3 above, the mice from each group were sacrificed, and then the brain tissue was extracted, and the degree of Aβ plaque deposition in the parietal cortex, hippocampus, and piriform cortex regions was analyzed using thioflavin S, which stains Aβ plaques.

| Molecule | biological half-life [1] | expression level of MAP-2 in the CA1 region of the hippocampus [2] | amount of plaque deposited in the brain (number of plaques per unit area and sum of plaque areas) [3] |
| --- | --- | --- | --- |
| wild type GLP-1: wild type glucagon-like peptide-1, cleaved and inactivated by DPP-4 in vivo; SEQ ID NO: 1 | 1-2 minutes |  |  |
| B1 |  | higher than that of the control group (Tg+Veh) | tended to be reduced |

— patent US20250099548A1, “PHARMACEUTICAL COMPOSITION FOR PREVENTING OR TREATING DEGENERATIVE BRAIN DISEASES, CONTAINING GLUCAGON-LIKE PEPTIDE-1 AND INTERLEUKIN-1 RECEPTOR ANTAGONIST” (GI INNOVATION, INC., priority 2022, published 2025)
